# From article PMC9482650, “Quantitative fragmentomics allow affinity mapping of interactomes” (Nature Communications, 2022)
# How the values were obtained:
# Experiment in all cases: holdup assay
# Design in all cases: key: below the threshold = too weak to quantify, mostly under pKd 3.1 to 4
# SIPA1L2, Q9P2F8 = molecular target: T1, SIPA1L2, Q9P2F8
# T1 sequence (Q9P2F8 945-1036, limits assumed, looked up): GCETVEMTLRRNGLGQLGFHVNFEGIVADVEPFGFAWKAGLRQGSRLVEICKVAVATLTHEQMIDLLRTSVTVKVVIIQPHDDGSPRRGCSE
# PTPN13_1, Q12923 = molecular target: T2, PTPN13_1, Q12923
# T2 sequence (Q12923 1088-1188, limits assumed, looked up): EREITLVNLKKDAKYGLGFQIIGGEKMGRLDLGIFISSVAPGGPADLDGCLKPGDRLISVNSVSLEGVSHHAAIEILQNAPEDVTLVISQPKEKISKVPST
# DLG1_3, Q12959 = molecular target: DLG1_3, Q12959
# PCLO, Q9Y6V0 = molecular target: T3, PCLO, Q9Y6V0
# T3 sequence (Q9Y6V0 4491-4600, limits assumed, looked up): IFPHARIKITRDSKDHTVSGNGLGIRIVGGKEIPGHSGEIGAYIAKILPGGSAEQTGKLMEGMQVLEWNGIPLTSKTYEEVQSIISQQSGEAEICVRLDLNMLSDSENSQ
# RAPGEF6, Q8TEU7 = molecular target: T4, RAPGEF6, Q8TEU7
# T4 sequence (Q8TEU7 525-625, limits assumed, looked up): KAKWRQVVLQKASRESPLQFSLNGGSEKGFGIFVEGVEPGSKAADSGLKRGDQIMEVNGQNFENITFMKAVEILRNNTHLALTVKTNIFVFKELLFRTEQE
# DLG2_3, Q15700 = molecular target: DLG2_3, Q15700
# GRID2IP_1, A4D2P6 = molecular target: GRID2IP_1, A4D2P6
# MPDZ_5, O75970 = molecular target: T5, MPDZ_5, O75970
# T5 sequence (O75970 695-796, limits assumed, looked up): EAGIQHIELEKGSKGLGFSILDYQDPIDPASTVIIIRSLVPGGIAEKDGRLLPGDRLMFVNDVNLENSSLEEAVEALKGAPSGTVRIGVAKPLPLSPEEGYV
# GOPC, Q9HD26 = molecular target: GOPC, Q9HD26
# GIPC2, Q8TF65 = molecular target: GIPC2, Q8TF65
# HTRA1, Q92743 = molecular target: HTRA1, Q92743
# FRMPD2_2, Q68DX3 = molecular target: FRMPD2_2, Q68DX3
# PDZD7_3, Q9H5P4 = molecular target: T6, PDZD7_3, Q9H5P4
# T6 sequence (Q9H5P4 857-944, limits assumed, looked up): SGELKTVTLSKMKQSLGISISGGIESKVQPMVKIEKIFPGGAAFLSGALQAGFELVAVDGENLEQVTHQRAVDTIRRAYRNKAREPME
# LRRC7, Q96NW7 = molecular target: T7, LRRC7, Q96NW7
# T7 sequence (Q96NW7 1440-1537, limits assumed, looked up): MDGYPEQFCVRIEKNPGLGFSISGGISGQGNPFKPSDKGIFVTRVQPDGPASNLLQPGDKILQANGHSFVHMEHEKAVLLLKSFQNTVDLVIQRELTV
# SYNJ2BP, P57105 = molecular target: T8, SYNJ2BP, P57105
# T8 sequence (P57105 8-110, limits assumed, looked up): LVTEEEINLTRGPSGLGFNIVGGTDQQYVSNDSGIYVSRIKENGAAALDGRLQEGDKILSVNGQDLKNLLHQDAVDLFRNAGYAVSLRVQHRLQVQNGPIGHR
# DLG4_3, P78352 = molecular target: DLG4_3, P78352
# LIN7A, O14910 = molecular target: T9, LIN7A, O14910
# T9 sequence (O14910 103-200, limits assumed, looked up): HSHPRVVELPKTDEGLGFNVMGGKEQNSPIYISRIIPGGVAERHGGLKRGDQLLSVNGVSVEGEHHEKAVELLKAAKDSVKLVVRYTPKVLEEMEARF
# DLG1_2, Q12959 = molecular target: DLG1_2, Q12959
# Inadl_10, Q8NI35 = molecular target: Inadl_10, Q8NI35
# DLG2_2, Q15700 = molecular target: DLG2_2, Q15700
# ARHGAP21, Q5T5U3 = molecular target: T10, ARHGAP21, Q5T5U3
# T10 sequence (Q5T5U3 45-169, limits assumed, looked up): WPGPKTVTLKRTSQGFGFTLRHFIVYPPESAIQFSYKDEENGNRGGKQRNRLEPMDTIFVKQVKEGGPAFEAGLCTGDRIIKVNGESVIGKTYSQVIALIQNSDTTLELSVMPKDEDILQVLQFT
# GRIP2_7, Q9C0E4 = molecular target: GRIP2_7, Q9C0E4
# GRIP2_3, Q9C0E4 = molecular target: GRIP2_3, Q9C0E4
# SNTB1, Q13884 = molecular target: T11, SNTB1, Q13884
# T11 sequence (Q13884 107-205, limits assumed, looked up): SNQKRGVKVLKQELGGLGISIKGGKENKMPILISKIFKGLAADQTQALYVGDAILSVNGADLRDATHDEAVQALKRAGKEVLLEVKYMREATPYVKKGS
# PARD3B_1, Q8TEW8 = molecular target: T12, PARD3B_1, Q8TEW8
# T12 sequence (Q8TEW8 196-299, limits assumed, looked up): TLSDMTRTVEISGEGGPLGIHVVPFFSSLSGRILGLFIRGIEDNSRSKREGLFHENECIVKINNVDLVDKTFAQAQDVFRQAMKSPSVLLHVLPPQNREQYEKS
# [1] = plain residues with an end cap or a label only (N-terminal biotin on a linker: ahx)
# [2] = plain residues with an end cap or a label only (N-terminal biotin on a linker: ttds)
# [3] = plain residues with an end cap or a label only (N-terminal biotin on a linker: ado-ado)
# DLG4_3, P78352, sequence (P78352 306-403): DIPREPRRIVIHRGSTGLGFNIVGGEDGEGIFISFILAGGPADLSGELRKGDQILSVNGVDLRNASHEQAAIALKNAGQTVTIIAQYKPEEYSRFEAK
# GRIP2_3, Q9C0E4, sequence (Q9C0E4 238-339): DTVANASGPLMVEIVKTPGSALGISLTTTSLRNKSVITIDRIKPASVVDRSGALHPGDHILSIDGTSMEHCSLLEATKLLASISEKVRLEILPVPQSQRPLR
# DLG1_3, Q12959, sequence (Q12959 457-571): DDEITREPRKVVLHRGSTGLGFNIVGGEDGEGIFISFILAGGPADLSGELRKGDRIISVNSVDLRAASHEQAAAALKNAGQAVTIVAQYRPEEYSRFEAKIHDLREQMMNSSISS
# Inadl_10, Q8NI35, sequence (Q8NI35 1673-1763): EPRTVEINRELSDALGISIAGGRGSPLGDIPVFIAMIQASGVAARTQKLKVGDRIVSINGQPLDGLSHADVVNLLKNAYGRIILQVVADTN
# GRID2IP_1, A4D2P6, sequence (A4D2P6 1-87): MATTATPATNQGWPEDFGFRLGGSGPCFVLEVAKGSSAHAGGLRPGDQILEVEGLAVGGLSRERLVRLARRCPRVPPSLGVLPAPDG
# DLG1_2, Q12959, sequence (Q12959 314-412): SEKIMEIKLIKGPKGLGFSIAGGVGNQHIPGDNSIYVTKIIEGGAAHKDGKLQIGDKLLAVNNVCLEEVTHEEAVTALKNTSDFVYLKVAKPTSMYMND
# GIPC2, Q8TF65, sequence (Q8TF65 112-203): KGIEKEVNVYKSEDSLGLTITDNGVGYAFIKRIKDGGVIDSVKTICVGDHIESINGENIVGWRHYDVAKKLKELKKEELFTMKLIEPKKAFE
# FRMPD2_2, Q68DX3, sequence (Q68DX3 944-1038): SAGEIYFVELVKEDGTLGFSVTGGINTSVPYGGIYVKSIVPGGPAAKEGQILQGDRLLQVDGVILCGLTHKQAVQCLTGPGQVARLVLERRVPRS
# GRIP2_7, Q9C0E4, sequence (Q9C0E4 934-1023): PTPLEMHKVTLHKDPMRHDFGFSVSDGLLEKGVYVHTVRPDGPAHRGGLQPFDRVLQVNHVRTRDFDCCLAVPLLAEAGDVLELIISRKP
# HTRA1, Q92743, sequence (Q92743 360-477): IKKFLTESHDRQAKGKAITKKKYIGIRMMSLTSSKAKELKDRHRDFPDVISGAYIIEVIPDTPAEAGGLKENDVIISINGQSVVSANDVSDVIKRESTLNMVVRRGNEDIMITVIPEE
binder,measurement,setting,value
"EKLSSIESDV [GRIN2B, Q13224]",pKd,"SIPA1L2, Q9P2F8; [1]",below the threshold
same,pKd,"PTPN13_1, Q12923; [1]",below the threshold
same,pKd,"DLG1_3, Q12959; [1]",below the threshold
same,pKd,"PCLO, Q9Y6V0; [1]",below the threshold
same,pKd,"RAPGEF6, Q8TEU7; [1]",below the threshold
same,pKd,"DLG2_3, Q15700; [1]",4.56
same,pKd,"GRID2IP_1, A4D2P6; [1]",below the threshold
same,pKd,"MPDZ_5, O75970; [1]",below the threshold
same,pKd,"GOPC, Q9HD26; [1]",3.63
same,pKd,"GIPC2, Q8TF65; [1]",4.33
same,pKd,"HTRA1, Q92743; [1]",below the threshold
same,pKd,"FRMPD2_2, Q68DX3; [1]",3.91
same,pKd,"PDZD7_3, Q9H5P4; [1]",3.77
same,pKd,"LRRC7, Q96NW7; [1]",3.63
same,pKd,"SYNJ2BP, P57105; [1]",4.4
same,pKd,"DLG4_3, P78352; [1]",below the threshold
same,pKd,"LIN7A, O14910; [1]",below the threshold
same,pKd,"DLG1_2, Q12959; [1]",4.97
same,pKd,"Inadl_10, Q8NI35; [1]",below the threshold
same,pKd,"DLG2_2, Q15700; [1]",below the threshold
same,pKd,"ARHGAP21, Q5T5U3; [1]",3.71
same,pKd,"GRIP2_7, Q9C0E4; [1]",3.53
same,pKd,"GRIP2_3, Q9C0E4; [1]",below the threshold
same,pKd,"SNTB1, Q13884; [1]",4.46
same,pKd,"PARD3B_1, Q8TEW8; [1]",below the threshold
"HIVEALETDV [PBK, Q96KB5]",pKd,"SIPA1L2, Q9P2F8; [2]",below the threshold
same,pKd,"PTPN13_1, Q12923; [2]",below the threshold
same,pKd,"DLG1_3, Q12959; [2]",below the threshold
same,pKd,"PCLO, Q9Y6V0; [2]",below the threshold
same,pKd,"RAPGEF6, Q8TEU7; [2]",below the threshold
same,pKd,"DLG2_3, Q15700; [2]",3.7
same,pKd,"GRID2IP_1, A4D2P6; [2]",below the threshold
same,pKd,"MPDZ_5, O75970; [2]",below the threshold
same,pKd,"GOPC, Q9HD26; [2]",below the threshold
same,pKd,"GIPC2, Q8TF65; [2]",4.55
same,pKd,"HTRA1, Q92743; [2]",below the threshold
same,pKd,"FRMPD2_2, Q68DX3; [2]",4.66
same,pKd,"PDZD7_3, Q9H5P4; [2]",4.6
same,pKd,"LRRC7, Q96NW7; [2]",3.91
same,pKd,"SYNJ2BP, P57105; [2]",4.35
same,pKd,"DLG4_3, P78352; [2]",below the threshold
same,pKd,"LIN7A, O14910; [2]",below the threshold
same,pKd,"DLG1_2, Q12959; [2]",5.66
same,pKd,"Inadl_10, Q8NI35; [2]",below the threshold
same,pKd,"DLG2_2, Q15700; [2]",5.28
same,pKd,"ARHGAP21, Q5T5U3; [2]",3.91
same,pKd,"GRIP2_7, Q9C0E4; [2]",3.91
same,pKd,"GRIP2_3, Q9C0E4; [2]",below the threshold
same,pKd,"SNTB1, Q13884; [2]",5.29
same,pKd,"PARD3B_1, Q8TEW8; [2]",below the threshold
"MERLRVETDV [ARHGEF16, Q5VV41]",pKd,"SIPA1L2, Q9P2F8; [2]",below the threshold
same,pKd,"PTPN13_1, Q12923; [2]",below the threshold
same,pKd,"DLG1_3, Q12959; [2]",3.86
same,pKd,"PCLO, Q9Y6V0; [2]",below the threshold
same,pKd,"RAPGEF6, Q8TEU7; [2]",below the threshold
same,pKd,"DLG2_3, Q15700; [2]",4.11
same,pKd,"GRID2IP_1, A4D2P6; [2]",below the threshold
same,pKd,"MPDZ_5, O75970; [2]",3.6
same,pKd,"GOPC, Q9HD26; [2]",3.84
same,pKd,"GIPC2, Q8TF65; [2]",3.75
same,pKd,"HTRA1, Q92743; [2]",below the threshold
same,pKd,"FRMPD2_2, Q68DX3; [2]",3.74
same,pKd,"PDZD7_3, Q9H5P4; [2]",4.08
same,pKd,"LRRC7, Q96NW7; [2]",3.81
same,pKd,"SYNJ2BP, P57105; [2]",4.8
same,pKd,"DLG4_3, P78352; [2]",below the threshold
same,pKd,"LIN7A, O14910; [2]",below the threshold
same,pKd,"DLG1_2, Q12959; [2]",5.5
same,pKd,"Inadl_10, Q8NI35; [2]",below the threshold
same,pKd,"DLG2_2, Q15700; [2]",5.21
same,pKd,"ARHGAP21, Q5T5U3; [2]",3.63
same,pKd,"GRIP2_7, Q9C0E4; [2]",3.64
same,pKd,"GRIP2_3, Q9C0E4; [2]",below the threshold
same,pKd,"SNTB1, Q13884; [2]",4.84
same,pKd,"PARD3B_1, Q8TEW8; [2]",below the threshold
"SVVSERISSV [HTR2C, P28335]",pKd,"SIPA1L2, Q9P2F8; [3]",below the threshold
same,pKd,"PTPN13_1, Q12923; [3]",below the threshold
same,pKd,"DLG1_3, Q12959; [3]",below the threshold
same,pKd,"PCLO, Q9Y6V0; [3]",below the threshold
same,pKd,"RAPGEF6, Q8TEU7; [3]",below the threshold
same,pKd,"DLG2_3, Q15700; [3]",3.89
same,pKd,"GRID2IP_1, A4D2P6; [3]",below the threshold
same,pKd,"MPDZ_5, O75970; [3]",below the threshold
same,pKd,"GOPC, Q9HD26; [3]",below the threshold
same,pKd,"GIPC2, Q8TF65; [3]",below the threshold
same,pKd,"HTRA1, Q92743; [3]",4.18
same,pKd,"FRMPD2_2, Q68DX3; [3]",4.25
same,pKd,"PDZD7_3, Q9H5P4; [3]",4.26
same,pKd,"LRRC7, Q96NW7; [3]",below the threshold
same,pKd,"SYNJ2BP, P57105; [3]",4.46
same,pKd,"DLG4_3, P78352; [3]",below the threshold
same,pKd,"LIN7A, O14910; [3]",below the threshold
same,pKd,"DLG1_2, Q12959; [3]",4.74
same,pKd,"Inadl_10, Q8NI35; [3]",below the threshold
same,pKd,"DLG2_2, Q15700; [3]",4.4
same,pKd,"ARHGAP21, Q5T5U3; [3]",below the threshold
same,pKd,"GRIP2_7, Q9C0E4; [3]",below the threshold
same,pKd,"GRIP2_3, Q9C0E4; [3]",below the threshold
same,pKd,"SNTB1, Q13884; [3]",4.89
same,pKd,"PARD3B_1, Q8TEW8; [3]",below the threshold
